The results in this text go back to patent publication US20020102260A1.

In this assay the target is VEGFR-2. The experiment in a line: cell-based or functional assay.

Take “VEGF-DΔN (from UniProt O43915 93-354) (ligand)”: the activity towards the VEGFR-2 bioassay was 10 fold.
